The chains are these.
B1: MXI1 peptide 6-21 (Max-interacting protein 1), 16-mer library wild type / SIN3A PAH2 (SIN3A PAH domain, residues 295-383) (parent complex)
chain 1: MINVQRLLEAAEFLER
chain 2: SLQNNQPVEFNHAINYVNKIKNRFQGQPDIYKAFLEILHTYQKEQRNAKEAGGNYTPALTEQEVYAQVARLFKNQEDLLSEFGQFLPDA
B2: PEX5 peptide 110-125 (Peroxisomal targeting signal 1 receptor), 16-mer library wild type / PEX14 Pex14 (PEX14 PEX14, residues 16-84) (parent complex)
chain 1: ADLALSENWAQEFLAA
chain 2: TPGSENVLPREPLIATAVKFLQNSRVRQSPLATRRAFLKKKGLTDEEIDMAFQQSGTAADEPSSLGPAT

One assay covers variants of B1. The assay can be described thus: proteomic peptide phage display deep mutational scan (ProP-PD DMS): M13 P8 16-mer library selected against immobilised GST-tagged bait for four days (rounds), NGS of the eluted pools per day and pseudo-replica; bait immobilised on MaxiSorp plates (10 µg), library pre-cleared on GST, 2 h binding at 4 °C, five washes; one round per day, days 1-4; value from days 2 and 3.
In the case of chain 1 I2W, the screen value is 0.00792 average fractional NGS count over selection days 2 and 3 (reads of this peptide / all reads for the bait, averaged over ….
Consider chain 1 I2L, for which the screen value was 0.000364 average fractional NGS count over selection days 2 and 3 (reads of this peptide / all reads for the bait, averaged over ….
Regarding chain 1 I2P, the screen value was 0.000427 average fractional NGS count over selection days 2 and 3 (reads of this peptide / all reads for the bait, averaged over ….
With chain 1 I2S, the screen value is 0.000713 average fractional NGS count over selection days 2 and 3 (reads of this peptide / all reads for the bait, averaged over ….
On to chain 1 I2Q, for which the screen value is 0.000479 average fractional NGS count over selection days 2 and 3 (reads of this peptide / all reads for the bait, averaged over ….
As for chain 1 V4W, the screen value is 0.00027 average fractional NGS count over selection days 2 and 3 (reads of this peptide / all reads for the bait, averaged over ….
Consider chain 1 V4T, for which the screen value is 0.00342 average fractional NGS count over selection days 2 and 3 (reads of this peptide / all reads for the bait, averaged over ….
On the same count and under the same terms, for chain 1 V4A the value was 0.000356 average fractional NGS count over selection days 2 and 3 (reads of this peptide / all reads for the bait, averaged over …; for chain 1 V4N, 0.000273 average fractional NGS count over selection days 2 and 3 (reads of this peptide / all reads for the bait, averaged over ….
The same measure, in the same setting: as for chain 1 V4Y, the figure is 0.000247 average fractional NGS count over selection days 2 and 3 (reads of this peptide / all reads for the bait, averaged over …; as for chain 1 V4I, 0.000288 average fractional NGS count over selection days 2 and 3 (reads of this peptide / all reads for the bait, averaged over …; as for chain 1 V4H, 0.000116 average fractional NGS count over selection days 2 and 3 (reads of this peptide / all reads for the bait, averaged over ….
Consider chain 1 V4L, for which the screen value is 0.000307 average fractional NGS count over selection days 2 and 3 (reads of this peptide / all reads for the bait, averaged over ….
On to chain 1 F13A, for which the screen value is 0.000255 average fractional NGS count over selection days 2 and 3 (reads of this peptide / all reads for the bait, averaged over ….
With chain 1 F13T, the screen value is 0.00119 average fractional NGS count over selection days 2 and 3 (reads of this peptide / all reads for the bait, averaged over ….
Turning to chain 1 F13R, the screen value was 0.00192 average fractional NGS count over selection days 2 and 3 (reads of this peptide / all reads for the bait, averaged over ….
Turning to chain 1 F13K, the screen value was 0.00119 average fractional NGS count over selection days 2 and 3 (reads of this peptide / all reads for the bait, averaged over ….
On the same count and under the same terms, as for chain 1 F13L, the figure is 0.00028 average fractional NGS count over selection days 2 and 3 (reads of this peptide / all reads for the bait, averaged over …; as for chain 1 F13G, 0.00169 average fractional NGS count over selection days 2 and 3 (reads of this peptide / all reads for the bait, averaged over …; as for chain 1 F13S, 0.000565 average fractional NGS count over selection days 2 and 3 (reads of this peptide / all reads for the bait, averaged over ….
For the variant chain 1 F13E, the screen value was 0.000282 average fractional NGS count over selection days 2 and 3 (reads of this peptide / all reads for the bait, averaged over ….
With chain 1 F13Q, the screen value was 0.00155 average fractional NGS count over selection days 2 and 3 (reads of this peptide / all reads for the bait, averaged over ….
As to chain 1 F13W, the screen value was 0.00114 average fractional NGS count over selection days 2 and 3 (reads of this peptide / all reads for the bait, averaged over ….
With chain 1 F13N, the screen value is 0.00134 average fractional NGS count over selection days 2 and 3 (reads of this peptide / all reads for the bait, averaged over ….
As for chain 1 F13D, the screen value is 0.00238 average fractional NGS count over selection days 2 and 3 (reads of this peptide / all reads for the bait, averaged over ….
Same read-out and setting: for chain 1 F13Y the value was 0.00195 average fractional NGS count over selection days 2 and 3 (reads of this peptide / all reads for the bait, averaged over …; for chain 1 F13V, 0.000201 average fractional NGS count over selection days 2 and 3 (reads of this peptide / all reads for the bait, averaged over …; for chain 1 E12H, 0.00554 average fractional NGS count over selection days 2 and 3 (reads of this peptide / all reads for the bait, averaged over ….
As for chain 1 E12G, the screen value is 0.00105 average fractional NGS count over selection days 2 and 3 (reads of this peptide / all reads for the bait, averaged over ….
In the case of chain 1 E12S, the screen value was 0.000265 average fractional NGS count over selection days 2 and 3 (reads of this peptide / all reads for the bait, averaged over ….
For the variant chain 1 E12W, the screen value is 9.8e-05 average fractional NGS count over selection days 2 and 3 (reads of this peptide / all reads for the bait, averaged over ….
With chain 1 E12R, the screen value is 0.00176 average fractional NGS count over selection days 2 and 3 (reads of this peptide / all reads for the bait, averaged over ….
The same measure, in the same setting: as for chain 1 E12K, the figure is 0.00174 average fractional NGS count over selection days 2 and 3 (reads of this peptide / all reads for the bait, averaged over …; as for chain 1 E12F, 0.0145 average fractional NGS count over selection days 2 and 3 (reads of this peptide / all reads for the bait, averaged over ….
On to chain 1 E12Q, for which the screen value was 0.00319 average fractional NGS count over selection days 2 and 3 (reads of this peptide / all reads for the bait, averaged over ….
Same read-out and setting: as for chain 1 E12L, the figure is 0.0769 average fractional NGS count over selection days 2 and 3 (reads of this peptide / all reads for the bait, averaged over …; as for chain 1 E12T, 0.000504 average fractional NGS count over selection days 2 and 3 (reads of this peptide / all reads for the bait, averaged over …; as for chain 1 E12N, 0.000144 average fractional NGS count over selection days 2 and 3 (reads of this peptide / all reads for the bait, averaged over ….
For the variant chain 1 E12I, the screen value was 0.000347 average fractional NGS count over selection days 2 and 3 (reads of this peptide / all reads for the bait, averaged over ….
Take chain 1 E12V: the screen value was 0.000221 average fractional NGS count over selection days 2 and 3 (reads of this peptide / all reads for the bait, averaged over ….
Same read-out and setting: as for chain 1 E12Y, the figure is 0.000478 average fractional NGS count over selection days 2 and 3 (reads of this peptide / all reads for the bait, averaged over ….
Take chain 1 L8H: the screen value was 0.000323 average fractional NGS count over selection days 2 and 3 (reads of this peptide / all reads for the bait, averaged over ….
Take chain 1 L8T: the screen value is 0.000156 average fractional NGS count over selection days 2 and 3 (reads of this peptide / all reads for the bait, averaged over ….
As for chain 1 L8M, the screen value is 0.000134 average fractional NGS count over selection days 2 and 3 (reads of this peptide / all reads for the bait, averaged over ….
Take chain 1 L8I: the screen value is 0.00287 average fractional NGS count over selection days 2 and 3 (reads of this peptide / all reads for the bait, averaged over ….
Regarding chain 1 L8V, the screen value is 0.000127 average fractional NGS count over selection days 2 and 3 (reads of this peptide / all reads for the bait, averaged over ….
As for chain 1 L8G, the screen value is 0.000132 average fractional NGS count over selection days 2 and 3 (reads of this peptide / all reads for the bait, averaged over ….
chain 1 L8S: the screen value was 0.000473 average fractional NGS count over selection days 2 and 3 (reads of this peptide / all reads for the bait, averaged over ….
On to chain 1 L8Y, for which the screen value was 0.000651 average fractional NGS count over selection days 2 and 3 (reads of this peptide / all reads for the bait, averaged over ….
On to chain 1 L8Q, for which the screen value is 0.000344 average fractional NGS count over selection days 2 and 3 (reads of this peptide / all reads for the bait, averaged over ….
chain 1 R6Y: the screen value is 0.00232 average fractional NGS count over selection days 2 and 3 (reads of this peptide / all reads for the bait, averaged over ….
On to chain 1 R6W, for which the screen value is 0.0159 average fractional NGS count over selection days 2 and 3 (reads of this peptide / all reads for the bait, averaged over ….
Turning to chain 1 R6V, the screen value is 0.000218 average fractional NGS count over selection days 2 and 3 (reads of this peptide / all reads for the bait, averaged over ….
For chain 1 R6G, the screen value was 0.000834 average fractional NGS count over selection days 2 and 3 (reads of this peptide / all reads for the bait, averaged over ….
As for chain 1 R6A, the screen value is 0.00198 average fractional NGS count over selection days 2 and 3 (reads of this peptide / all reads for the bait, averaged over ….
In the case of chain 1 R6S, the screen value was 0.00011 average fractional NGS count over selection days 2 and 3 (reads of this peptide / all reads for the bait, averaged over ….
For chain 1 A10Y, the screen value is 0.000126 average fractional NGS count over selection days 2 and 3 (reads of this peptide / all reads for the bait, averaged over ….
Same read-out and setting: as for chain 1 A10G, the figure is 0.00122 average fractional NGS count over selection days 2 and 3 (reads of this peptide / all reads for the bait, averaged over ….
As to chain 1 A10V, the screen value is 0.000572 average fractional NGS count over selection days 2 and 3 (reads of this peptide / all reads for the bait, averaged over ….
Take chain 1 A10W: the screen value is 0.000448 average fractional NGS count over selection days 2 and 3 (reads of this peptide / all reads for the bait, averaged over ….
Turning to chain 1 N3K, the screen value is 0.000249 average fractional NGS count over selection days 2 and 3 (reads of this peptide / all reads for the bait, averaged over ….
For the variant chain 1 N3H, the screen value is 0.000207 average fractional NGS count over selection days 2 and 3 (reads of this peptide / all reads for the bait, averaged over ….
Take chain 1 N3G: the screen value is 0.00333 average fractional NGS count over selection days 2 and 3 (reads of this peptide / all reads for the bait, averaged over ….
With chain 1 N3T, the screen value is 0.00466 average fractional NGS count over selection days 2 and 3 (reads of this peptide / all reads for the bait, averaged over ….
With chain 1 N3M, the screen value is 0.0121 average fractional NGS count over selection days 2 and 3 (reads of this peptide / all reads for the bait, averaged over ….
Regarding chain 1 N3P, the screen value is 0.00138 average fractional NGS count over selection days 2 and 3 (reads of this peptide / all reads for the bait, averaged over ….
For chain 1 N3E, the screen value was 0.000543 average fractional NGS count over selection days 2 and 3 (reads of this peptide / all reads for the bait, averaged over ….
Turning to chain 1 N3V, the screen value is 0.000212 average fractional NGS count over selection days 2 and 3 (reads of this peptide / all reads for the bait, averaged over ….
In the case of chain 1 N3L, the screen value was 0.0228 average fractional NGS count over selection days 2 and 3 (reads of this peptide / all reads for the bait, averaged over ….
chain 1 N3W: the screen value was 0.000465 average fractional NGS count over selection days 2 and 3 (reads of this peptide / all reads for the bait, averaged over ….
Regarding chain 1 N3Y, the screen value is 0.000298 average fractional NGS count over selection days 2 and 3 (reads of this peptide / all reads for the bait, averaged over ….

Variants of B2 are the subject of a further assay. The assay is described as above.
With chain 1 D2H, the screen value was 0.004 average fractional NGS count over selection days 2 and 3 (reads of this peptide / all reads for the bait, averaged over ….
With chain 1 L3P, the screen value is 0.00046 average fractional NGS count over selection days 2 and 3 (reads of this peptide / all reads for the bait, averaged over ….
chain 1 E7H: the screen value is 0.00742 average fractional NGS count over selection days 2 and 3 (reads of this peptide / all reads for the bait, averaged over ….
On the same count and under the same terms, as for chain 1 A4L, the figure is 0.000672 average fractional NGS count over selection days 2 and 3 (reads of this peptide / all reads for the bait, averaged over ….

(Values after article PMC12102759 (2025).)
